Patent US10159726B2, “Peptides, combination of peptides and scaffolds for use in immunotherapeutic treatment of various cancers” (Immatics Biotechnologies GmbH, priority 2015, dated 2018)

Target: HLA-A*02 (Homo sapiens, UniProt P04439, D140Y/D185E/D98H/E176V/E277Q/G131W/G231S/I119V/I121R/I166T/I218V/N151K/N90K/P208A/P217A/Q86G/Q94H/R138H/R169H)
Assay: MHC binding assay, UV-ligand exchange with beta2m ELISA, HLA-A*02
Settings: peptide exchange yield
Description: Candidate peptides for T cell based therapies according to the present invention were further tested for their MHC binding capacity (affinity). The individual peptide-MHC complexes were produced by UV-ligand exchange, where a UV-sensitive peptide is cleaved upon UV-irradiation, and exchanged with the peptide of interest as analyzed. Only peptide candidates that can effectively bind and stabilize the peptide-receptive MHC molecules prevent dissociation of the MHC complexes. To determine the yield of the exchange reaction, an ELISA was performed based on the detection of the light chain (β2m) of stabilized MHC complexes. The assay was performed as generally described in Rodenko et al. (Rodenko et al., 2006).
96 well MAXISorp plates (NUNC) were coated over night with 2 ug/ml streptavidin in PBS at room temperature, washed 4× and blocked for 1 h at 37° C. in 2% BSA containing blocking buffer. […] Peptide-MHC monomers of the UV-exchange reaction were diluted 100 fold in blocking buffer. Samples were incubated for 1 h at 37° C., washed four times, incubated with 2 ug/ml HRP conjugated anti-β2m for 1 h at 37° C., washed again and detected with TMB solution that is stopped with […]. Absorption was measured at 450 nm. Candidate peptides that show a high exchange yield (preferably higher than 50%, most preferred higher than 75%) are generally preferred for a generation and production of antibodies or fragments thereof, and/or T cell receptors or fragments thereof, as they show sufficient avidity to the MHC molecules and prevent dissociation of the MHC complexes.

Row | MHC class I binding score, Peptide exchange | Substance
1 | ++ (20%-49% = ++) | 1 (PLWGKVFYL; listed as Homo sapiens) [compound 1]
2 | +++ (50%-75% = +++) | 3 (TLLGKQVTL; listed as Homo sapiens) [compound 3]
3 | +++ (50%-75% = +++) | 4 (ELAEIVFKV; listed as Homo sapiens) [compound 4]
4 | +++ (50%-75% = +++) | 5 (SLFGQEVYC; listed as Homo sapiens) [compound 5]
5 | ++ (20%-49% = ++) | 11 (GVLKVFLENV; listed as Homo sapiens) [compound 11]
6 | ++ (20%-49% = ++) | 12 (GLIYEETRGV; listed as Homo sapiens) [compound 12]
7 | +++ (50%-75% = +++) | 20 (ALDGHLYAI; listed as Homo sapiens) [compound 20]
8 | ++++ (>=75% = ++++) | 22 (MLSDLTLQL; listed as Homo sapiens) [compound 22]
9 | +++ (50%-75% = +++) | 24 (FLWNGEDSAL; listed as Homo sapiens) [compound 24]
10 | ++ (20%-49% = ++) | 25 (IQADDFRTL; listed as Homo sapiens) [compound 25]
11 | +++ (50%-75% = +++) | 27 (KVFGDLDQV; listed as Homo sapiens) [compound 27]
12 | ++++ (>=75% = ++++) | 31 (ALSDETKNNWEV; listed as Homo sapiens) [compound 31]
13 | +++ (50%-75% = +++) | 32 (ILADEAFFSV; listed as Homo sapiens) [compound 32]
14 | +++ (50%-75% = +++) | 40 (SLLALPQDLQA; listed as Homo sapiens) [compound 40]
15 | +++ (50%-75% = +++) | 42 (VLSPFILTL; listed as Homo sapiens) [compound 42]
16 | ++ (20%-49% = ++) | 44 (GLLWQIIKV; listed as Homo sapiens) [compound 44]
17 | +++ (50%-75% = +++) | 45 (VLGPTPELV; listed as Homo sapiens) [compound 45]
18 | +++ (50%-75% = +++) | 46 (SLAKHGIVAL; listed as Homo sapiens) [compound 46]
19 | ++ (20%-49% = ++) | 48 (TLDHKPVTV; listed as Homo sapiens) [compound 48]
20 | +++ (50%-75% = +++) | 49 (LLDESKLTL; listed as Homo sapiens) [compound 49]
21 | +++ (50%-75% = +++) | 52 (ELLSSIFFL; listed as Homo sapiens) [compound 52]
22 | +++ (50%-75% = +++) | 53 (SLLSHVIVA; listed as Homo sapiens) [compound 53]
23 | +++ (50%-75% = +++) | 54 (FINPKGNWLL; listed as Homo sapiens) [compound 54]
24 | ++ (20%-49% = ++) | 57 (VLISSTVRL; listed as Homo sapiens) [compound 57]
25 | ++ (20%-49% = ++) | 60 (FLIDTSASM; listed as Homo sapiens) [compound 60]
26 | + (<20% = +) | 63 (TLSSERDFAL; listed as Homo sapiens) [compound 63]
27 | +++ (50%-75% = +++) | 66 (FITDFYTTV; listed as Homo sapiens) [compound 66]
28 | +++ (50%-75% = +++) | 69 (GIYDGILHSI; listed as Homo sapiens) [compound 69]
29 | +++ (50%-75% = +++) | 70 (GLFSQHFNL; listed as Homo sapiens) [compound 70]
30 | +++ (50%-75% = +++) | 71 (GLITVDIAL; listed as Homo sapiens) [compound 71]

The remaining lines, values behind:

Row | Substance | MHC class I binding score, Peptide exchange
31 | 6 (FLDPAQRDL; listed as Homo sapiens) [compound 6] | +++ (50%-75% = +++)
32 | 8 (KLGPFLLNA; listed as Homo sapiens) [compound 8] | +++ (50%-75% = +++)
33 | 10 (KTLDVFNIIL; listed as Homo sapiens) [compound 10] | ++ (20%-49% = ++)
34 | 13 (VLRDNIQGI; listed as Homo sapiens) [compound 13] | +++ (50%-75% = +++)
35 | 14 (LLDHLSFINKI; listed as Homo sapiens) [compound 14] | ++ (20%-49% = ++)
36 | 16 (HLYNNEEQV; listed as Homo sapiens) [compound 16] | ++ (20%-49% = ++)
37 | 18 (YVLNEEDLQKV; listed as Homo sapiens) [compound 18] | +++ (50%-75% = +++)
38 | 19 (TLLPTVLTL; listed as Homo sapiens) [compound 19] | +++ (50%-75% = +++)
39 | 21 (SLYHRVLLY; listed as Homo sapiens) [compound 21] | ++++ (>=75% = ++++)
40 | 23 (AQTVVVIKA; listed as Homo sapiens) [compound 23] | + (<20% = +)
41 | 26 (KVDGVVIQL; listed as Homo sapiens) [compound 26] | +++ (50%-75% = +++)
42 | 28 (TLYSMDLMKV; listed as Homo sapiens) [compound 28] | +++ (50%-75% = +++)
43 | 29 (TLCNKTFTA; listed as Homo sapiens) [compound 29] | +++ (50%-75% = +++)
44 | 33 (LLLPLLPPLSPSLG; listed as Homo sapiens) [compound 33] | +++ (50%-75% = +++)
45 | 35 (YVLPKLYVKL; listed as Homo sapiens) [compound 35] | ++ (20%-49% = ++)
46 | 36 (KLYGIEIEV; listed as Homo sapiens) [compound 36] | ++++ (>=75% = ++++)
47 | 37 (ALINDILGELVKL; listed as Homo sapiens) [compound 37] | +++ (50%-75% = +++)
48 | 38 (KMQEDLVTL; listed as Homo sapiens) [compound 38] | +++ (50%-75% = +++)
49 | 39 (ALMAVVSGL; listed as Homo sapiens) [compound 39] | +++ (50%-75% = +++)

Row | Substance | MHC class I binding score, Peptide exchange
50 | 41 (FVLPLVVTL; listed as Homo sapiens) [compound 41] | +++ (50%-75% = +++)
51 | 47 (GLYQAQVNL; listed as Homo sapiens) [compound 47] | +++ (50%-75% = +++)
52 | 50 (EYALLYHTL; listed as Homo sapiens) [compound 50] | ++ (20%-49% = ++)
53 | 51 (LLLDGDFTL; listed as Homo sapiens) [compound 51] | +++ (50%-75% = +++)
54 | 55 (IASAIVNEL; listed as Homo sapiens) [compound 55] | ++ (20%-49% = ++)
55 | 56 (KILDLTRVL; listed as Homo sapiens) [compound 56] | ++ (20%-49% = ++)
56 | 58 (ALDDSLTSL; listed as Homo sapiens) [compound 58] | ++ (20%-49% = ++)
57 | 59 (ALTKILAEL; listed as Homo sapiens) [compound 59] | +++ (50%-75% = +++)
58 | 61 (HLPDFVKQL; listed as Homo sapiens) [compound 61] | ++ (20%-49% = ++)
59 | 62 (SLFNQEVQI; listed as Homo sapiens) [compound 62] | +++ (50%-75% = +++)
60 | 64 (GLSSSSYEL; listed as Homo sapiens) [compound 64] | ++ (20%-49% = ++)
61 | 65 (KLDGICWQV; listed as Homo sapiens) [compound 65] | +++ (50%-75% = +++)
62 | 67 (GVIETVTSL; listed as Homo sapiens) [compound 67] | ++ (20%-49% = ++)
63 | 72 (GMIGFQVLL; listed as Homo sapiens) [compound 72] | +++ (50%-75% = +++)
64 | 74 (ILDETLENV; listed as Homo sapiens) [compound 74] | ++ (20%-49% = ++)
65 | 75 (ILDNVKNLL; listed as Homo sapiens) [compound 75] | +++ (50%-75% = +++)
66 | 76 (ILLDESNFNHFL; listed as Homo sapiens) [compound 76] | +++ (50%-75% = +++)
67 | 77 (IVLSTIASV; listed as Homo sapiens) [compound 77] | +++ (50%-75% = +++)
68 | 78 (LLWGHPRVA; listed as Homo sapiens) [compound 78] | +++ (50%-75% = +++)
